Substitutions are numbered along the chain they refer to. Where two headings read alike, the source gives them in different places.
B1: S2E12 (antibody, V domains shown)
VH: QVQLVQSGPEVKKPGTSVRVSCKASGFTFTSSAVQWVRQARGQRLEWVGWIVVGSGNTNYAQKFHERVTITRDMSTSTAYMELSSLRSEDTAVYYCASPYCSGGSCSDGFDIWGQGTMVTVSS
VL: DIVLTQTPGTLSLSPGERATLSCRASQSVSSSYLAWYQQKPGQAPRLLIYGASSRATGIPDRFSGSGSGTDFTLTISRLEPEDFAVYYCQQYVGLTGWTFGQGTKVEIK
notes: also called S2E12 WT; S2E12 wt
B2: 409_11_4_v2 (antibody, V domains shown)
VH: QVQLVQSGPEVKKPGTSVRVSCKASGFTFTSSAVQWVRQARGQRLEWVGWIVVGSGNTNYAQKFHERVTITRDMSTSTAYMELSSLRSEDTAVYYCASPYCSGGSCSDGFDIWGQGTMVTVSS
VL: B1 VL with L47A
notes: also called S2E12-v2
B3: 409_11_4_v3 (antibody, V domains shown)
VH: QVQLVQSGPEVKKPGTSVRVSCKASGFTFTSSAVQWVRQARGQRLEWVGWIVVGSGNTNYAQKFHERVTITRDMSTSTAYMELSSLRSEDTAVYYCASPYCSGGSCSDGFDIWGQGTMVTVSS
VL: B1 VL with W98F
B4: 409_11_4_v12 (antibody, V domains shown)
VH: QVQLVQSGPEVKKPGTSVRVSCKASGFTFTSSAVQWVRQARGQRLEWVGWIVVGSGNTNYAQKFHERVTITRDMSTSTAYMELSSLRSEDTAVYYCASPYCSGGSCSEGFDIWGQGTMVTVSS
VL: B1 VL
B5: 409_11_4_v13 (antibody, V domains shown)
VH: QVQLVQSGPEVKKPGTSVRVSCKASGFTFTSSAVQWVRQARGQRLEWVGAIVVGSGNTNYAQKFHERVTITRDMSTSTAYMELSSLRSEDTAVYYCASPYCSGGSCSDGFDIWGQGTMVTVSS
VL: B1 VL
B6: 409_11_4_v4 (antibody, V domains shown)
VH: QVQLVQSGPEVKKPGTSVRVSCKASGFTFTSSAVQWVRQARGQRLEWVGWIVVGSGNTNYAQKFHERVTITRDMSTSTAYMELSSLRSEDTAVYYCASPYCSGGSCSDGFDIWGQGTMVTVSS
VL: B1 VL with W98Y
B7: 409_11_4_v5 (antibody, V domains shown)
VH: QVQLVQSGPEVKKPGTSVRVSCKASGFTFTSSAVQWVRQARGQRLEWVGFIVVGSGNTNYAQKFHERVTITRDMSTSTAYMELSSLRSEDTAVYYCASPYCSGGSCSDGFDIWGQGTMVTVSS
VL: B1 VL
B8: 409_11_4_v6 (antibody, V domains shown)
VH: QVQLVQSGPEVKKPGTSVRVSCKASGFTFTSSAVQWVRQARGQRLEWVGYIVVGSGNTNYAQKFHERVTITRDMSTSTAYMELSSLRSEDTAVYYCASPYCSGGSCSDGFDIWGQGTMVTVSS
VL: B1 VL
B9: 409_11_4_v7 (antibody, V domains shown)
VH: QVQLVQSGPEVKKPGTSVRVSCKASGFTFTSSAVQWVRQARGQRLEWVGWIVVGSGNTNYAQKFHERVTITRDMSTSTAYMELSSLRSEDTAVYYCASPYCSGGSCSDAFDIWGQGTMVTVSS
VL: B1 VL
B10: S2X16 (antibody, V domains shown)
VH: EVQLVQSGAEVKKPGASVKVSCKASGYIFTDHYMHWVRQAPGQGLEWMGWINPNSGGTNYAQKFQGRVTMTRDTSINTAYMELSRLRSDDTAVHYCARDRSRFRFFSPDFDYWGQGTLVTVSS
VL: not shown
notes: also called S2X16-11
B11: S2X47 (antibody, V domains shown)
VH: QVQLQESGPGLVKPSQTLSLTCTVSGGSISSRSYYWSWIRQPAGKGLEWIGRIYTSGNTNYNPSLRSRVTISVDTSKNQFSLKLGSVTAADTAVYYCARERIIGTAHVGGWFDPWGQGTLVTVSS
VL: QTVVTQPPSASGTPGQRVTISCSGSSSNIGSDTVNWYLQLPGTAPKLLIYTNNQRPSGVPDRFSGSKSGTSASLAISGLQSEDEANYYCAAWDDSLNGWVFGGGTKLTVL
notes: also called S2X47-11
B12: S2X35 (antibody, V domains shown)
VH: QVQLVQSGAEVKKPGASVKVSCKASGYTFTNYGISWVRQAPGQGLEWMGWISAYKGNTNYAQKLQGRVTMTTDTSTSTAYMELRSLRSDDTAVYYCARPDYQVLGYDFWIGYYGMDVWGQGTTVIVSS
VL: QSVLTQPPSVSGAPGQRVTISCTGSSSNIGAGYDVHWYQQLPGTAPKLLIYGNTNRPSGVPDRFSGSKSGTSASLAITGLQAEDEADYYCQSYDSSLSGSEVVFGGGTKLTVL
notes: also called S2X35-11
B13: S2X30 (antibody, V domains shown)
VH: EVQLVQSGAEVKKPGSSVKVSCKASGGTFGSYTISWVRQAPGQGLEWMGRIIPILSIPNYAQKFQGRVTFTADKSTSTAYMELSSLRSEDTAVYYCARGGGGTHAVPHYYFDSWGQGTLVTVSS
VL: EIVMMQSPATLSVSPGERATLSCRASQSVSSNLAWYQHKPGQAPRLLIYGASTRATGIPARFSGSGSGTEFTLTISSMQSEDFAVYYCQQYNNWPFTFGGGTKVEIK
notes: also called S2X30-11

Columns and labels:
[1] = molecular target: T1, SARS-CoV-2 RBD (정제된, SPR) (SARS-CoV-2 (Wuhan-Hu-1), UniProt P0DTC2 331-550); assay: SPR, Biacore T200, single-cycle kinetics, antibody captured, RBD injected
[2] = molecular target: T1, SARS-CoV-2 RBD (정제된, SPR)
[3] = molecular target: T1, SARS-CoV-2 RBD (정제된, SPR); remark: listed apart in the source
[4] = molecular target: T1, SARS-CoV-2 RBD (정제된, SPR); assay: SPR, Biacore T200; ratio against S2E12 WT
[5] = molecular target: T2, SARS-CoV-2 RBD (자체 생산, BetaCoV/Wuhan-Hu-1/2019 스파이크의 잔기 331 내지 550, 수탁 번호 MN908947) (SARS-CoV-2 (BetaCoV/Wuhan-Hu-1/2019), UniProt P0DTC2 331-550); assay: ELISA, RBD coated on plate, serial dilutions of recombinant mAb
T2 construct: range 331-550; also called SARS-CoV-2 스파이크 단백질 RBD

[6] = molecular target: T1, SARS-CoV-2 RBD (정제된, SPR); assay: SPR, Biacore T200; ratio against S2E12 WT; remark: listed apart in the source
SARS-CoV-2 스파이크 단백질 = SARS-CoV-2 스파이크 단백질 (SARS-CoV-2, UniProt P0DTC2 14-1273); assay: cell-based or functional assay
[7] = molecular target: T3, SARS-CoV RBD (Sino Biological) (SARS-CoV (SARS-CoV-1), UniProt P59594 306-527); assay: ELISA, RBD coated on plate
T3 construct: domain: RBD; also called SARS-CoV-1 RBD; SARS-CoV-1 스파이크 단백질 RBD

[8] = molecular target: T2, SARS-CoV-2 RBD (자체 생산, …); assay: ELISA, RBD coated on plate, serial dilutions of recombinant mAb; remark: listed apart in the source
[9] = molecular target: T3, SARS-CoV RBD (Sino Biological); assay: as above

Binder	Kd [1]	koff [1]	kon [1]	Kd [3]	KD_WT/KD [4]	IC50 (neutralisation) (SARS-CoV-2 스파이크 단백질)	IC80 (neutralisation) (SARS-CoV-2 스파이크 단백질)	IC90 (neutralisation) (SARS-CoV-2 스파이크 단백질)	further results
B1	1.18 nM	0.00233 s⁻¹	1.98e+06 M⁻¹ s⁻¹	2.28 nM	1	–	–	–	Kd [2]: 1.31 nM; koff [2]: 0.00317 s⁻¹; kon [2]: 2.42e+06 M⁻¹ s⁻¹; EC50 [5]: 0.0434 µg/mL
B2	–	–	–	0.788 nM	2.89	–	–	–	–
B3	13 nM	0.0153 s⁻¹	1.18e+06 M⁻¹ s⁻¹	–	–	–	–	–	KD/KD_WT [6]: 0.1
B4	–	–	–	45.3 nM	0.05	–	–	–	–
B5	–	–	–	51.4 nM	0.04	–	–	–	–
B6	–	–	–	25.9 nM	0.09	–	–	–	–
B7	13.3 nM	0.0358 s⁻¹	2.68e+06 M⁻¹ s⁻¹	–	–	–	–	–	KD/KD_WT [6]: 0.098
B8	–	–	–	20.4 nM	0.11	–	–	–	–
B9	4.9 nM	0.00913 s⁻¹	1.86e+06 M⁻¹ s⁻¹	–	–	–	–	–	KD/KD_WT [6]: 0.267
B10	–	–	–	–	–	0.006 µg/mL	0.022 µg/mL	0.046 µg/mL	binding result [7]: no binding
B11	–	–	–	–	–	0.003 µg/mL	0.012 µg/mL	0.025 µg/mL	EC50 [8]: 0.092 µg/mL; binding result [7]: no binding
B12	–	–	–	–	–	0.092 µg/mL	0.32 µg/mL	0.661 µg/mL	EC50 [8]: 0.0483 µg/mL; EC50 [9]: 0.0846 µg/mL
B13	–	–	–	–	–	0.015 µg/mL	0.031 µg/mL	0.046 µg/mL	binding result [7]: no binding

From patent KR20230010676A (dated 2023)
